From patent US20250101107A1
One block for each binder: values may come before it.

Biological target: human CD8 on human T cells (human) (UniProt P01732)
Test: cell-based or functional assay

Chain of human CD8 on human T cells (human) (P01732 22-235, chain 1 of 2): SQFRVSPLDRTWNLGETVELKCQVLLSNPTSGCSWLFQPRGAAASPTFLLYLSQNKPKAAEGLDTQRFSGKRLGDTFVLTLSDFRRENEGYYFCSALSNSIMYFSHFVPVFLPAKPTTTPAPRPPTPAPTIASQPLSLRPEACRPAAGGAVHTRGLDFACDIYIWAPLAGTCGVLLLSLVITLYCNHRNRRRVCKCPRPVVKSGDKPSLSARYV
Chain of human CD8 on human T cells (human) (P10966 22-210, chain 2 of 2, further chain): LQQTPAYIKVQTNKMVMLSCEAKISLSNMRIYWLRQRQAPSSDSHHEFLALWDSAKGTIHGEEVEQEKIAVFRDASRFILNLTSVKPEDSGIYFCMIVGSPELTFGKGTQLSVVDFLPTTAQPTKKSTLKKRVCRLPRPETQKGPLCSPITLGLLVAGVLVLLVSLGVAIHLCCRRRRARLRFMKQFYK

- EC50 for stimulation of pSTAT4 signaling, CD8+ T cells in pre-activated human PBMCs: 11.1 pM
B1: 03A01-Fab-IL12 (LC) (protein, from a related filing, not shown: a dimerising Fc or GST)
VH: DVQFQESGPGLVKPSQSLSLTCTVTGYSITSDFAWNWIRQFPGNELEWMGYISYSGDTNYNPSLRSRISITRDTSKNQFFLQLDSVTTEDTATYYCTIRGYYTDSAFVFWGQGTLVTVSA
VL: DIQMTQSSSYLSVSLGGRVTITCKASDHINNWLAWYQQKPGNAPRLLISGATSLETGVPSRFTGSGSGLDYTLSITSLQTEDVATYYCQQYWNSPFTFGSGTKLEIK

- EC50 for stimulation of pSTAT4 signaling, CD8+ T cells in pre-activated human PBMCs: 13.4 pM
B2: 03A01-Fab-Fc-IL12 (LC) (protein, from a related filing, not shown: a dimerising Fc or GST)
VH: B1 VH
VL: B1 VL

- EC50 for stimulation of pSTAT4 signaling, CD8+ T cells in pre-activated human PBMCs: 1.74 pM
B3: 02A01-Fab-IL12 (LC) (protein, from a related filing, not shown: a dimerising Fc or GST)
VH: EVQLQQSGPELVKPGASLKISCKASGYTFTDFTMHWVKQSHGKSLEWIGLVNPNNGGNIYNQNFKGKATLTVDTSSSTAYMELRSLTSEDSSVYYCGRVPLYTSHGMDYWGQGTSVTVSS
VL: DIVLTQSPAFLAVSLGQRATISCRASESVDSYDINSMHWYQQKPGQPPKLLIYRASHLQSGIPARFSGSGSRTDFTLTINFVEADDVATYYCQQSNEDPLTFGAGTKLELK

- EC50 for stimulation of pSTAT4 signaling, CD8+ T cells in pre-activated human PBMCs: 2.11 pM
B4: 02A01-Fab-Fc-IL12 (LC) (protein, from a related filing, not shown: a dimerising Fc or GST)
VH: B3 VH
VL: B3 VL
